Assay [1] deals with TSH receptor coated onto plastic tubes or ELISA plate wells (RSR Ltd) / detergent solubilised TSH receptor. Kind of assay: Scatchard analysis, TSH receptors coated onto plastic tubes.
The target in assay [2] is T1, TSH receptor coated onto plastic tubes or ELISA plate wells (RSR Ltd) / detergent solubilised TSH receptor.
T1 construct: also called TSHR coated tubes; TSH receptor coated tubes
Put plainly: Scatchard analysis, 125I-IgG on TSH receptor coated tubes. How it is done: Unlabelled IgG or Fab in 50 μL of assay buffer and 50 μL of ¹²⁵I-labelled hMAb IgG or Fab (30,000 cpm in assay buffer) were incubated for 2 hours at room temperature with gentle shaking, washed twice with 1 mL of assay buffer and counted in a gamma counter.

Two molecules from patent US20060241289A1 (RSR, published 2006) can be followed below.

B1: 9D33 (antibody, V domains shown)
VH: DVQIQQPGTELVKPGASVRLSCKASGYTFTTYWMHWVKQRPGQGLEWIGEIDPSDSYTNYNQKFKGKATLTVDKSSSTAYMHLSSLTSEDSAVYYCSRNYGSGYYFDYWGQGTTLTVSS
VL: GVEMTQSPAIMSASPGEKVTMTCSASSSVSYMHWYQQKSGTSPKRWIYDTSKLASGVPARFSGSGSGTSYSLTISSMETEDAATYYCQQWSSNPWTFGGGTKLEIK
notes: Mouse monoclonal IgG; also called 9D33 IgG; mouse monoclonal antibody to the TSHR (9D33)
As for B1, the Ka in assay [1] was found to be 2e+10 M⁻¹.

B2: hMAb TSHR1 IgG (antibody, V domains shown)
VH: QVQLVQSGAEVKKPGESLKISCRGSGYRFTSYWINWVRQLPGKGLEWMGRIDPTDSYTNYSPSFKGHVTVSADKSINTAYLQWSSLKASDTGMYYCARLEPGYSSTWSVNWGQGTLVTVSS
VL: LTVLTQPPSVSGAPRQRVTISCSGNSSNIGNNAVNWYQQLPGKAPKLLIYYDDQLPSGVSDRFSGSRSGTSASLAIRGLQSEDEADYYCTSWDDSLDSQLFGGGTRLTVLG
notes: also called human monoclonal TSH receptor autoantibody; TSMAb TSHR1 IgG
B2 had a Ka in assay [2] of 5e+10 M⁻¹.
